Test results: patent publication US20210403600A1 (University of California, published 2021)
Where a chain is given by its changes, count along the chain named. Blank lines part the entries; values can stand above or below the binder they belong to.

How the values were obtained:
[1] = target: T1, human Factor XIa (blood-derived, Haematologic Technologies Inc.) (human, UniProt P03951 19-387; P03951 388-625); experiment: ELISA, wells coated with hFXIa, anti-human IgG HRP, OD 450
T1 construct: It was biotinylated via primary amines for selections, Octet and Biacore; also called FXIa; human FXIa

[2] = target: T1, human Factor XIa (blood-derived, …); experiment: SPR (Biacore T200), biotinylated FXIa captured on a CAP chip, Fab as analyte, 37 C
Cyno FXI = target: T2, Cyno FXI (Macaca fascicularis, UniProt A0A2K5VVW4); experiment: ELISA, wells coated with cynomolgus FXI (zymogen), anti-human IgG HRP, OD 450
T2 construct: coating antigen 'FXI' of the chart titled 'Cyno FXI/FXIA'; also called cynomolgus monkey FXI (zymogen)

[3] = target: T1, human Factor XIa (blood-derived, …); experiment: SPR (Biacore T200), biotinylated FXIa captured on a CAP chip, IgG as analyte, 25 C

EC50 (read off the curve) [1]: ~1 ng/mL
B1: Clone 24 IgG (antibody, V domains shown)
VH: EVQLVQSGAEVKKPGASVKVSCKASGYTFTGYYMHWVRQAPGQGLEWMGWIDPDSGDTNYAQKFQGRVTMTRDTSISTAYMELSRLRSDDTAVYYCARLASGFRDYWGQGTLVTVSS
VL: DIVMTKSPSSLSASVGDRVTITCRASQGIRNDLGWYQQKPGKAPKRLIYAASSLQSGVPSRFSGSGSGTEFTLTISSLQPEDFATYYCLQHDIYASTFGPGTKVDIKR
notes: also called C24

Kd [2]: 0.0339 nM
B2: DEF Fab (Fab, V domains shown)
VH: B1 VH with S55E
VL: B1 VL with R108T

Kd [2]: 0.0152 nM
B3: C24 Fab (Fab, V domains shown)
VH: B1 VH
VL: B1 VL
notes: Fab format of clone 24; also called clone 24 Fab; anti-FXIa C24 Fab

binding result (Cyno FXI): no binding (tested: not printed)
Kd [3]: 0.93 nM
B4: D4 IgG (antibody, V domains shown)
VH: not shown
VL: B1 VL with K6Q
notes: also called D4 mAb; D4 anti-FXIa mAb
